Biological target: COX4I1
Test: AP-MS (FLAG affinity purification, protein intensity)
Settings: HEK293T transiently overexpressing FLAG-tagged COX5A; n = 3 biological replicates, mean ± SD; parent: est. 1.1e10; read off a plot

Row | Substance | response [intensity]
1 | COX5A-FLAG, wild type (from UniProt P20674) D81W | 2.5e+10
2 | COX5A-FLAG, wild type (from UniProt P20674) T79G | 6e+09
3 | COX5A-FLAG, wild type (from UniProt P20674) Y80W | 5e+09

— publication PMC13423832
